Experimental data from US6677130.

Molecular target: T1, GST-ATF2 substrate, P15336
T1 chain: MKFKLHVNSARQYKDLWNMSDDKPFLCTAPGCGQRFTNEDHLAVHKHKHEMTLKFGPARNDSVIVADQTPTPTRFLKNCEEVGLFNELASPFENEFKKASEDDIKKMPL

B1: epitope-tagged p38-2 (3xHA-p38-2) (protein)
chain: MSGPRAGFYRQELNKTVWEVPQRLQGLRPVGSGAYGSVCSAYDARLRQKVAVKKLSRPFQSLIHARRTYRELRLLKHLKHENVIGLLDVFTPATSLEDFSEVYLVTTLMGADLNNIVKCQALSDEHVQFLVYQLLRGLKYIHSAGIIHRDLKPSNVAVNEDCELRILDFGLARQADEEMTGYVATRWYRAPEIMLNWMHYNQTVDIWSVGCIMAELLQGKALFPGSDYIDQLKRIMEVVGTPSPEVLAKISSEHARTYIQSLPPMPQKDLSSIFRGANPLAIDLLGRMLVLDSDQRVSAAEALAHAYFSQYHDPEDEPEAEPYDEGVEAKERTLEEWKELTYQEVLSFKPPEPPKPPGSLEIEQ
phosphorylation of GST-ATF2 by immunoprecipitated HA-p38-2 ([gamma-32P]ATP, SDS-PAGE, autoradiography): the inducible phosphorylation of ATF2 depends on a kinase cascade comprised of MEK6 and p38-2
